From patent publication US6653088 (AVENTIS PHARMA S A, dated 2003)

B1: amyline (peptide, UniProt P10997 34-70, looked up)
peptide: KCNTATCATQRLANFLVHSSNNFGAILSSTNVGSNTY
notes: also called another amyloidogenous peptide
B2: cytoplasmic domain of the APP (MC45F) (other, not shown: small tags and cut ends)
chain: KKQYTSIHHGVVEVDAAVTPEERHLSKMQQNGYENPTYKFFEQMQNDYDDDDK
notes: also called cytoplasmic domain of APP; the 45 last residues of the APP
B3: S-tag-PS2Nt (recombinant PS2NT protein produced in bacterium) (other, not shown: small tags and cut ends)
chain: MLTFMASDSEEEVCDERTSLMSAESPTPRSCQEGRQGPEDGENTAQWRSQENEEDGEEDPDRYVCSGVPGRPPGLEEELTLKYGAKH
notes: also called unlabelled PS2NT

Legend:
[1] = molecular target: B3; assay: 96-well plate test (ELISA type), peptide on plastic, S-tag detection
Protocol: The plates are rinsed twice with PBS and the non-specific immobilization sites are saturated by incubation with 5% (w/v) of bovine serum albumin in PBS. […] The detection of the signal is carried out in a spectrophotometer at 450 nm.
The Aβ peptide (Aβ40 or Aβ42) is immobilized by incubation on plastic 96-well plates.

presenilin 2 (PS2) = molecular target: T1, presenilin 2 (PS2) (human, UniProt P49810 1-448); assay: co-immunoprecipitation from cotransfected COS cells, detection with αCT43
T1 construct: whole, on cells; Full-length membrane protein; complexes formed in transfected COS cells and were analysed in detergent lysates; also called complete PS2; STM2
Protocol: For immunoprecipitation, 100 μg of proteins are diluted in 400 μl of modified RIPA (150 mM NaCl, 50 mM Tris pH 8.0, 1% TRITON X100 v/v, 1% NP40 v/v). Thirty microlitres of protein A Sepharose suspension (0.1% m/v in PBS solution) and 3 μl of antibody are added. The suspensions are gently mixed on a rotating shaker at 4° C. for one night. The protein A Sepharose complex is washed 3 times with 0.5 ml of modified RIPA and once with 0.5 ml of "Wash C" washing buffer (10 mM Tris pH 7.5).

biot-3K-Aβ42RR = molecular target: T2, biot-3K-Aβ42RR (UniProt P05067 672-713, biotin at the N-terminal end); assay: HTRF competition; unlabelled PS2NT displaces PS2NT-K from biot-Aβ42
T2 construct: domain: Aβ1-42; also called biot-Aβ42; biot-Aβ1-42

Binder: B1
binding result [1]: no binding

Binder: B2
binding result (presenilin 2 (PS2)): no binding

Binder: B3
IC50 (biot-3K-Aβ42RR): 400 nM
